Values of other authors in US20050255458A1, “Drug discovery assays based on the biology of chronic disease” (priority 2002, published 2005).

B1: soluble TF: soluble tissue factor (protein, UniProt P13726 33-251, looked up)
extracellular domain: SGTTNTVAAYNLTWKSTNFKTILEWEPKPVNQVYTVQISTKSGDWKSKCFYTTDTECDLTDEIVKDVKQTYLARVFSYPAGNVESTGSAGEPLYENSPEFTPYLETNLGQPTIQSFEQVGTKVNVTVEDERTLVRRNNTFLSLRDVFGKDLIYTLYYWKSSSSGKKTAKTNTNEFLIDVDKGENYCFSVQAVIPSRTVNRKSTDSPVECMGQEKGEFRE
modifications: extracellular domain
notes: soluble tissue factor
B2: IL-1α: interleukin 1α cytokine (protein, UniProt P01583 113-271, looked up)
Interleukin-1 alpha: SAPFSFLSNVKYNFMRIIKYEFILNDALNQSIIRANDQYLTAAALHNLDEAVKFDMGAYKSSKDDAKITVILRISKTQLYVTAQDEDQPVLLKEMPEIPKTITGSETNLLFFWETHGTKNYFTSVAHPNLFIATKQDYWVCLAGGPPSITDFQILENQA

Legend:
[1] = tested on: reverse transmigration of PBMC across HUVEC
[2] = tested on: anagen hair follicles; conditions: Philpott 1996

Row | Molecule | inhibition of reverse transendothelial migration [1] [%] | scalp hair growth [2]
1 | B1 | 69±2 | 
2 | B2 |  | inhibition of scalp hair growth
